Data published in patent US20240209076A1 (KODIAK SCIENCES, published 2024).

Columns and labels:
[1] = biological target: T1, recombinant human IL-6 (human, UniProt P05231 30-212); assay: SPR Biacore, purified dual inhibitor on Protein A chip, IL-6 analyte, 37 C
T1 construct: Bought protein

[2] = biological target: T1, recombinant human IL-6; assay: SPR Biacore, supernatant dual inhibitor on Protein A chip, IL-6 analyte, 25 C

T1 sequence (P05231 30-212 limits assumed): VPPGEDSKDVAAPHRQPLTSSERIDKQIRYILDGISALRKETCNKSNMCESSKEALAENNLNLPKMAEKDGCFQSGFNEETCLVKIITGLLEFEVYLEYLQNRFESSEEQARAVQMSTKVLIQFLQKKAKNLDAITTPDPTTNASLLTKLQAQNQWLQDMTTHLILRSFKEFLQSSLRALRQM

Binder	Kd [1] [nM]	koff [1] [s⁻¹]	kon [1] [M⁻¹ s⁻¹]	Kd [2] [nM]	koff [2] [s⁻¹]	kon [2] [M⁻¹ s⁻¹]
dual inhibitor molecule J (AntiIL-6-VEGF Trap) (other, Trap-antibody fusion, VEGF trap between the Fab region (VH variant II) and the Fc; light chain variant III) heavy: EVQLVESGGGLVQPGGSLRLSCAASGFTFSPFAWSWVRQAPGKGLEWVAKISPGGSWTYYSDTVTDRFTFSLDTSKSTAYLQMNSLRAEDTAVYYCARQLWGYYALDVWGQGTLVTVSSASTKGPSVFPLAPSSKSTSGGTAALGCLVKDYFPEPVTVSWNSGALTSGVHTFPAVLQSSGLYSLSSVVTVPSSSLGTQTYICNVNHKPSNTKVDKKVEPKSCGGGGSGGGGSSDTGRPFVEMYSEIPEIIHMTEGRELVIPCRVTSPNITVTLKKFPLDTLIPDGKRIIWDSRKGFIISNATYKEIGLLTCEATVNGHLYKTNYLTHRQTNTIIDVVLSPSHGIELSVGEKLVLNCTARTELNVGIDFNWEYPSSKHQHKKLVNRDLKTQSGSEMKKFLSTLTIDGVTRSDQGLYTCAASSGLMTKKNSTFVRVHEKDKTHTCPPCPAPEAAGAPSVFLFPPKPKDTLMISRTPEVTCVVVDVSHEDPEVKFNWYVDGVEVHNAKTKPREEQYNSTYRVVSVLTVLHQDWLNGKEYKCKVSNKALPAPIEKTISKAKGQPREPQVYTLPPSREEMTKNQVSLTCLVKGFYPSDIAVEWESNGQPENNYKTTPPVLDSDGSFFLYSKLTVDKSRWQQGNVFSCSVMHEALHNHYTQKSLSCSPGK light: DIQLTQSPSSLSASVGDRVTITCSASISVSYLYWYQQKPGKAPKLLIYDDSSLASGVPSRFSGSGSGTDFTLTISSLQPEDFATYYCQQWSGYPYTFGQGTKVEIKRTVAAPSVFIFPPSDEQLKSGTASVVCLLNNFYPREAKVQWKVDNALQSGNSQESVTEQDSKDSTYSLSSTLTLSKADYEKHKVYACEVTHQGLSSPVTKSFNRGEC	0.468	0.000664	1.42e+06	0.28	0.000149	534000
dual inhibitor molecule K (AntiIL-6-VEGF Trap) (other, Trap-antibody fusion, VEGF trap between the Fab region (VH variant II) and the Fc; light chain variant IV) heavy: EVQLVESGGGLVQPGGSLRLSCAASGFTFSPFAWSWVRQAPGKGLEWVAKISPGGSWTYYSDTVTDRFTFSLDTSKSTAYLQMNSLRAEDTAVYYCARQLWGYYALDVWGQGTLVTVSSASTKGPSVFPLAPSSKSTSGGTAALGCLVKDYFPEPVTVSWNSGALTSGVHTFPAVLQSSGLYSLSSVVTVPSSSLGTQTYICNVNHKPSNTKVDKKVEPKSCGGGGSGGGGSSDTGRPFVEMYSEIPEIIHMTEGRELVIPCRVTSPNITVTLKKFPLDTLIPDGKRIIWDSRKGFIISNATYKEIGLLTCEATVNGHLYKTNYLTHRQTNTIIDVVLSPSHGIELSVGEKLVLNCTARTELNVGIDFNWEYPSSKHQHKKLVNRDLKTQSGSEMKKFLSTLTIDGVTRSDQGLYTCAASSGLMTKKNSTFVRVHEKDKTHTCPPCPAPEAAGAPSVFLFPPKPKDTLMISRTPEVTCVVVDVSHEDPEVKFNWYVDGVEVHNAKTKPREEQYNSTYRVVSVLTVLHQDWLNGKEYKCKVSNKALPAPIEKTISKAKGQPREPQVYTLPPSREEMTKNQVSLTCLVKGFYPSDIAVEWESNGQPENNYKTTPPVLDSDGSFFLYSKLTVDKSRWQQGNVFSCSVMHEALHNHYTQKSLSCSPGK light: DIQLTQSPSSLSASVGDRVTITCSASISVSYLYWYQQKPGKAPKLLIYDASSLASGVPSRFSGSGSGTDFTLTISSLQPEDFATYYCQQWSGYPYTFGQGTKVEIKRTVAAPSVFIFPPSDEQLKSGTASVVCLLNNFYPREAKVQWKVDNALQSGNSQESVTEQDSKDSTYSLSSTLTLSKADYEKHKVYACEVTHQGLSSPVTKSFNRGEC	0.452	0.000579	1.28e+06	0.282	0.000178	629000

Further lines, results first:

Kd [1] [nM]	koff [1] [s⁻¹]	kon [1] [M⁻¹ s⁻¹]	Kd [2] [nM]	koff [2] [s⁻¹]	kon [2] [M⁻¹ s⁻¹]	Binder
0.435	0.000499	1.15e+06	0.679	0.000147	217000	dual inhibitor molecule I (AntiIL-6-VEGF Trap) (other, Trap-antibody fusion, VEGF trap between the Fab region (VH variant I) and the Fc; light chain variant V) heavy: EVQLVESGGGLVQPGGSLRLSCAASGFTFSPFAISWVRQAPGKGLEWVAKISPGGSWTYYSDTVTDRFTFSLDTSKSTAYLQMNSLRAEDTAVYYCARQLWGYYALDVWGQGTLVTVSSASTKGPSVFPLAPSSKSTSGGTAALGCLVKDYFPEPVTVSWNSGALTSGVHTFPAVLQSSGLYSLSSVVTVPSSSLGTQTYICNVNHKPSNTKVDKKVEPKSCGGGGSGGGGSSDTGRPFVEMYSEIPEIIHMTEGRELVIPCRVTSPNITVTLKKFPLDTLIPDGKRIIWDSRKGFIISNATYKEIGLLTCEATVNGHLYKTNYLTHRQTNTIIDVVLSPSHGIELSVGEKLVLNCTARTELNVGIDFNWEYPSSKHQHKKLVNRDLKTQSGSEMKKFLSTLTIDGVTRSDQGLYTCAASSGLMTKKNSTFVRVHEKDKTHTCPPCPAPEAAGAPSVFLFPPKPKDTLMISRTPEVTCVVVDVSHEDPEVKFNWYVDGVEVHNAKTKPREEQYNSTYRVVSVLTVLHQDWLNGKEYKCKVSNKALPAPIEKTISKAKGQPREPQVYTLPPSREEMTKNQVSLTCLVKGFYPSDIAVEWESNGQPENNYKTTPPVLDSDGSFFLYSKLTVDKSRWQQGNVFSCSVMHEALHNHYTQKSLSCSPGK light: DIQLTQSPSSLSASVGDRVTITCSASISVSYLYWYQQKPGKAPKLLIYDDSNLASGVPSRFSGSGSGTDFTLTISSLQPEDFATYYCQQWSGYPYTFGQGTKVEIKRTVAAPSVFIFPPSDEQLKSGTASVVCLLNNFYPREAKVQWKVDNALQSGNSQESVTEQDSKDSTYSLSSTLTLSKADYEKHKVYACEVTHQGLSSPVTKSFNRGEC
0.436	0.00065	1.49e+06	0.239	0.000169	705000	dual inhibitor molecule L (AntiIL-6-VEGF Trap) (other, Trap-antibody fusion, VEGF trap between the Fab region (VH variant II) and the Fc; light chain variant V) heavy: EVQLVESGGGLVQPGGSLRLSCAASGFTFSPFAWSWVRQAPGKGLEWVAKISPGGSWTYYSDTVTDRFTFSLDTSKSTAYLQMNSLRAEDTAVYYCARQLWGYYALDVWGQGTLVTVSSASTKGPSVFPLAPSSKSTSGGTAALGCLVKDYFPEPVTVSWNSGALTSGVHTFPAVLQSSGLYSLSSVVTVPSSSLGTQTYICNVNHKPSNTKVDKKVEPKSCGGGGSGGGGSSDTGRPFVEMYSEIPEIIHMTEGRELVIPCRVTSPNITVTLKKFPLDTLIPDGKRIIWDSRKGFIISNATYKEIGLLTCEATVNGHLYKTNYLTHRQTNTIIDVVLSPSHGIELSVGEKLVLNCTARTELNVGIDFNWEYPSSKHQHKKLVNRDLKTQSGSEMKKFLSTLTIDGVTRSDQGLYTCAASSGLMTKKNSTFVRVHEKDKTHTCPPCPAPEAAGAPSVFLFPPKPKDTLMISRTPEVTCVVVDVSHEDPEVKFNWYVDGVEVHNAKTKPREEQYNSTYRVVSVLTVLHQDWLNGKEYKCKVSNKALPAPIEKTISKAKGQPREPQVYTLPPSREEMTKNQVSLTCLVKGFYPSDIAVEWESNGQPENNYKTTPPVLDSDGSFFLYSKLTVDKSRWQQGNVFSCSVMHEALHNHYTQKSLSCSPGKPGK light: DIQLTQSPSSLSASVGDRVTITCSASISVSYLYWYQQKPGKAPKLLIYDDSNLASGVPSRFSGSGSGTDFTLTISSLQPEDFATYYCQQWSGYPYTFGQGTKVEIKRTVAAPSVFIFPPSDEQLKSGTASVVCLLNNFYPREAKVQWKVDNALQSGNSQESVTEQDSKDSTYSLSSTLTLSKADYEKHKVYACEVTHQGLSSPVTKSFNRGEC
